Measurements published in publication PMC12152876 (The Journal of Biological Chemistry, 2025).

Target: the molecule itself
Experiment: cross-linking

B1: Ebola virus nucleoprotein (NP), wild type, expressed for DSP cross-linking (natural protein)
chain: MDSRPQKIWMAPSLTESDMDYHKILTAGLSVQQGIVRQRVIPVYQVNNLEEICQLIIQAFEAGVDFQESADSFLLMLCLHHAYQGDYKLFLESGAVKYLEGHGFRFEVKKRDGVKRLEELLPAVSSGKNIKRTLAAMPEEETTEANAGQFLSFASLFLPKLVVGEKACLEKVQRQIQVHAEQGLIQYPTAWQSVGHMMVIFRLMRTNFLIKFLLIHQGMHMVAGHDANDAVISNSVAQARFSGLLIVKTVLDHILQKTERGVRLHPLARTAKVKNEVNSFKAALSSLAKHGEYAPFARLLNLSGVNNLEHGLFPQLSAIALGVATAHGSTLAGVNVGEQYQQLREAATEAEKQLQQYAESRELDHLGLDDQEKKILMNFHQKKNEISFQQTNAMVTLRKERLAKLTEAITAASLPKTSGHYDDDDDIPFPGPINDDDNPGHQDDDPTDSQDTTIPDVVVDPDDGSYGEYQSYSENGMNAPDDLVLFDLDEDDEDTKPVPNRSTKGGQQKNSQKGQHIEGRQTQSRPIQNVPGPHRTIHHASAPLTDNDRRNEPSGSTSPRMLTPINEEADPLDDADDETSSLPPLESDDEEQDRDGTSNRTPTVAPPAPVYRDHSEKKELPQDEQQDQDHTQEARNQDSDNTQSEHSFEEMYRHILRSQGPFDAVLYYHMMKDEPVVFSTSDGKEYTYPDSLEEEYPPWLTEKEAMNEENRFVTLDGQQFYWPVMNHKNKFMAILQHHQ
  stoichiometry N: 2
